Biological target: T1, recombinant trimeric gp140 from HIV-1 92UG037 (clade A) (HIV-1 92UG037 (clade A), UniProt Q5VFI3, strain)
T1 construct: source: provided by S. Jeffs (Imperial College London)
Assay: ELISA
Details: both partners purified

B1: 3E3 with the three germ line CDR2 residues re-inserted (VHH)
VHH: EVQLVESGGGLVQPGGSLRLSCAASQFTLESYAIGWFRQAPGKDSEGVACISSSDGSTYYADSVKGRFTISRDNAKNTVYLQMESLKPEDTAVYHCATSGAGSYCTLRAFGSWGQGTQVTVSS
  binding result: no binding
